# Laboratory results from PMC11786515, “CitGATA7 interact with histone acetyltransferase CitHAG28 to promote citric acid degradation by regulating the glutamine synthetase pathway in citrus”.
# T1: CitGATA7 (Citrus, UniProt A0ACB8JKI3 1-185)
# T1 sequence: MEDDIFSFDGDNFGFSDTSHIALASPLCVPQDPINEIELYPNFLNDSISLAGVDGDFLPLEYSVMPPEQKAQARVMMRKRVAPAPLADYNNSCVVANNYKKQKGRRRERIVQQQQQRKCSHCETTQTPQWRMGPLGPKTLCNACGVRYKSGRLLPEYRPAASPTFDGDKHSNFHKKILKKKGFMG
# Molecular target: T1, CitGATA7
# Experiment: EMSA; attenuated dose-dependently by unlabeled WT probe; LightShift Chemiluminescent EMSA kit (Thermo), manufacturer's instructions; buffer, salt, pH and temperature not stated
# Details: protein: recombinant; tags: His (pET-32a); label: 3'-biotin (both strands); blunt
row,Binder,binding result
1,CitACO3 promoter probe WT (dsDNA) DNA 1: TCCCATAAAAAAAGATCATAATAATAAAAG DNA 2: CTTTTATTATTATGATCTTTTTTTATGGGA,binds
2,CitIDH1 promoter probe WT (dsDNA) DNA 1: CATTAAATTCCACATCATCTAATATG DNA 2: CATATTAGATGATGTGGAATTTAATG,binds
3,CitGS1 promoter probe WT (dsDNA) DNA 1: GCACACCATCTCGATCAGGTGGTAATTTTG DNA 2: CAAAATTACCACCTGATCGAGATGGTGTGC,binds

# Molecular target: T1, CitGATA7
# Experiment: EMSA; LightShift Chemiluminescent EMSA kit (Thermo), manufacturer's instructions; buffer, salt, pH and temperature not stated
# Details: protein: recombinant; tags: His (pET-32a); label: 3'-biotin (both strands); blunt
row,Binder,binding result
1,CitACO3 promoter probe mutant (dsDNA) DNA 1: TCCCATAAAAAACCCCCCTAATAATAAAAG DNA 2: CTTTTATTATTAGGGGGGTTTTTTATGGGA,no binding
2,CitIDH1 promoter probe mutant (dsDNA) DNA 1: CATTAAATTCCATTTTTTCTAATATG DNA 2: CATATTAGAAAAAATGGAATTTAATG,no binding
3,CitGS1 promoter probe mutant (dsDNA) DNA 1: GCACACCATCTCAAAAAGGTGGTAATTTTG DNA 2: CAAAATTACCACCTTTTTGAGATGGTGTGC,no binding
